Results on three substances are retold here after PMC5722371.

For assay [1], the target named is Neisseria meningitides DMP19 (DNA mimic protein 19 kDa), tag free (Neisseria meningitides). Nature of the assay: ITC; ITC200, 300 μM HU-His6 dimer in the syringe into 30 μM DMP19 monomer in the cell, 20 mM Tris pH 7.4, 50 mM NaCl, 25°C, 20 injections of 2 μl. (In general: Isothermal titration calorimetry measures the heat released or taken up as one component is titrated into another.)

Assay [2] concerns the target C-terminal His6-tagged Neisseria HU (not stated (Neisseria)). Nature of the assay: SEC; Superose 12, 20 mM Tris pH 7.4, 100 mM NaCl; 750 μM HU-His6 or 1500 μM tag-free DMP19 alone, or both together; MW from Kav against four standards. (SEC sorts molecules by how far they enter the pores of the column.)
For assay [3], the target named is Neisseria meningitides DMP19 (DNA mimic protein 19 kDa), tag free (Neisseria meningitides). The experiment in a line: ITC; ITC200, 300 μM HU-His6 dimer in the syringe into 30 μM DMP19 monomer in the cell, 20 mM Tris pH 7.4, 50 mM NaCl, 25°C, 20 injections of 2 μl. The source holds these as a separate data set.
For assay [4], the target named is HU (Haemophilus influenzae) (UniProt P43722). Nature of the assay: ITC. Particulars: cited from earlier work.
In assay [5] the target is Neisseria meningitides DMP19 (DNA mimic protein 19 kDa), tag free (Neisseria meningitides). Nature of the assay: SEC; Superose 12, 20 mM Tris pH 7.4, 100 mM NaCl; 750 μM HU-His6 or 1500 μM tag-free DMP19 alone, or both together; MW from Kav against four standards.

Several values for one entry are separate records, joined by “and”; a condition that tells them apart may be missing. Equal entries are not always repeated. Where two headings read alike, the source gives them in different places.

With “C-terminal His6-tagged Neisseria HU (natural protein)”, the Kd (usually the free concentration of one partner at which half of the binding sites on the other are occupied at equilibrium, for simple one-to-one binding) in assay [1] was 500 nM; in assay [3], 380 nM and 490 nM and 640 nM. The stoichiometry N (usually a count of units in the complex or per binding partner) in assay [2] came to 2.

As to HI1450 (from UniProt P44199), the Kd in assay [4] was 3000 nM.

On to “Neisseria meningitides DMP19 (DNA mimic protein 19 kDa), tag free (natural protein)”, for which the stoichiometry N in assay [5] is 2.
